Results taken from PMC3390394, “Characterisation of the First Enzymes Committed to Lysine Biosynthesis in Arabidopsis thaliana” (PLoS ONE, 2012).
“And” between values parts separate entries of the source, which are not always exact repeats. Identical values can stand only once.

Assays:
[1] = target: the molecule itself; assay: small angle X-ray scattering (SAXS); in-line gel filtration (Superdex 200 5/150), 20 mM Tris.HCl, 150 mM NaCl, pH 8.0, 27°C; initial concentration 2-5 mg/mL; volume and molecular weight by AUTOPOROD, comparison with crystal structures by CRYSOL
[2] = target: the molecule itself; assay: SEC-MALS; Malvern P3000 column with Viscotek TDA (refractive index, low angle and right angle light scattering); 100 µL of 1.0 mg/mL; 20 mM Tris-HCl, 150 mM NaCl, pH 8.0; 28°C

Protein | stoichiometry N [1] | stoichiometry N [2]
Escherichia coli dihydrodipicolinate reductase (Ec-DHDPR) (enzyme, E. coli, Dihydrodipicolinate reductase (DapB), Escherichia coli; construct not described; theoretical mass of the tetramer printed as 114,800 Da) MHDANIRVAIAGAGGRMGRQLIQAALALEGVQLGAALEREGSSLLGSDAGELAGAGKTGVTVQSSLDAVKDDFDVFIDFTRPEGTLNHLAFCRQHGKGMVIGTTGFDEAGKQAIRDAAADIAIVFAANFSVGVNVMLKLLEKAAKVMGDYTDIEIIEAHHRHKVDAPSGTALAMGEAIAHALDKDLKDCAVYSREGHTGERVPGTIGFATVRAGDIVGEHTAMFADIGERLEITHKASSRMTFANGAVRSALWLSGKESGLFDMRDVLDLNNL | 4 | 
Thermotoga maritima dihydrodipicolinate reductase (Tm-DHDPR) (enzyme, T. maritima, Dihydrodipicolinate reductase (DapB), Thermotoga maritima; construct not described; theoretical mass of the tetramer printed as 99,380 Da) MKYGIVGYSGRMGQEIQKVFSEKGHELVLKVDVNGVEELDSPDVVIDFSSPEALPKTVDLCKKYRAGLVLGTTALKEEHLQMLRELSKEVPVVQAYNFSIGINVLKRFLSELVKVLEDWDVEIVETHHRFKKDAPSGTAILLESALGKSVPIHSLRVGGVPGDHVVVFGNIGETIEIKHRAISRTVFAIGALKAAEFLVGKDPGMYSFEEVIFGGE | 4 | 
Arabidopsis thaliana dihydrodipicolinate reductase 2 (At-DHDPR2) (enzyme, UniProt Q8LB01 54-349, looked up, Dihydrodipicolinate reductase 2 (At-DHDPR2), Arabidopsis thaliana, plasmid encoding AT3G59890 from TAIR; primers excluded the chloroplast transit peptide as identified by chloroP; residues may remain after TEV cleavage; also called AT3G59890; source: E. coli BL21(DE3) Star, purified (His-Trap, TEV cleavage, second His-trap)) LSMGKSETFEEAGNSVAPGNGISIMVNGCSGKMGKAVIKAADSAGVNIVPTSFGSVEEAGQTVEVCGKEILVHGPTEREKVLSSVFEKYPELIVVDYTIPSAVNDNAELYGKVGVPFVMGTTGGDRTRLYKTVEESKIYAVISPQMGKQVVAFLAAMEIMSEQFPGAFAGYSLEVMESHQASKLDASGTAKAVISCFQKLGVSYDMDQIQLIRDPKQQIEVVGVPEEHVSGHAFHLYHLTSPDKTVSFEFQHNVCGRSIYAEGTVDAVLFLAKKIRSKAEKRIYNMIDVLREGNMR |  | 2 and 4
